Results taken from US20060153833A1 (Genmab, published 2006).

Experiments:
[1] = biological target: T1, E2 glycoprotein expressed by recombinant vaccinia virus vHCV1-1488 (HCV-H) (Hepatitis C virus strain H (genotype 1a), UniProt P27958 384-746); experiment: pulse-chase immunoprecipitation, reducing SDS-PAGE
T1 construct: 35S-labelled and immunoprecipitated from cell lysates in pulse-chase experiments

[2] = biological target: T2, subtype 1b derived E2 (BK strain) expressed by recombinant Sindbis virus Sinrep/HCV-BK1-1207 (Hepatitis C virus strain BK (genotype …, UniProt P26663 384-746)); experiment: immunoprecipitation from cells infected with Sinrep/HCV-BK1-1207
T2 construct: Immunoprecipitated from lysates of infected cells; also called genotype 1b antigen
T2 sequence (P26663 384-746 limits assumed): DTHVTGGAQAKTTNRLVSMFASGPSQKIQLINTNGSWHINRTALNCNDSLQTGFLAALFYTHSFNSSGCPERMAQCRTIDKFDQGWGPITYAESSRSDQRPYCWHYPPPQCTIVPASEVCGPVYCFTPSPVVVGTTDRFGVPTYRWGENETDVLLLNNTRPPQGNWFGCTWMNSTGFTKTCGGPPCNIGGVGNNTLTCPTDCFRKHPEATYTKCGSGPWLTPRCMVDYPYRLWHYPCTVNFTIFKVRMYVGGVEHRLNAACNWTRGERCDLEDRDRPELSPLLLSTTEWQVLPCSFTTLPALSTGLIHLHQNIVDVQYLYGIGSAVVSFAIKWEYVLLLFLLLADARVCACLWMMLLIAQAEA

T1 sequence (P27958 384-746 limits assumed): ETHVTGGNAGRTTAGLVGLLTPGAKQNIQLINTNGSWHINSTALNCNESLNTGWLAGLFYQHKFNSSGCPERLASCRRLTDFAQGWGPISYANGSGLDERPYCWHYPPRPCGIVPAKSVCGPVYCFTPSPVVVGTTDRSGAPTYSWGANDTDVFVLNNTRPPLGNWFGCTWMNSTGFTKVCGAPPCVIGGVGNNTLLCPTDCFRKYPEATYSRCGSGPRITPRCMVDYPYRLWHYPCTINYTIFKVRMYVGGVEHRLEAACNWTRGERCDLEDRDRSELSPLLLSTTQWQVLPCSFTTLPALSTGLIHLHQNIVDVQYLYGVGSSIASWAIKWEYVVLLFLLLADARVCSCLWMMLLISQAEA

B1: HMAb 503 (antibody, V domains shown)
VH: QVQLQQWGAGLLKPSETLSLTCAVYGGSLSGYFWTWIRQSPGKGLEWIGESNYSGSTRYNPSLKSRVTISVDTSQNQFSLKLSSVTAADTAVYYCARGWAVDGMDVWGQGTTVTVSS
VL: SYELTQPPSVSVSPGQTARITCSGDALPKQYAYWYQQKPGQAPVLVIYKDNERPSGIPERFSGSRSGTTVTLTISGVQAEDEADYYCQSADSSGSSWVFGGGTKLTVL
notes: also called antibody 503; clone 503
- binding result [1]: binds
- binding result [2]: binds
